Measurements from article PMC3799952 (Biochemistry, 2013).

B1: amino terminus-truncated recombinant human aromatase, wild type (enzyme)
chain: MAKKTSSKGRNYEGTSSIPGPGYCMGIGPLISHGRFLWMGIGSACNYYNRVYGEFMRVWISGEETLIISKSSSMFHIMKHNHYSSRFGSKLGLQCIGMHEKGIIFNNNPELWKTTRPFFMKALSGPGLVRMVTVCAESLKTHLDRLEEVTNESGYVDVLTLLRRVMLDTSNTLFLRIPLDESAIVVKIQGYFDAWQALLIKPDIFFKISWLYKKYEKSVKDLKDAIEVLIAEKRRRISTEEKLEECMDFATELILAEKRGDLTRENVNQCILEMLIAAPDTMSVSLFFMLFLIAKHPNVEEAIIKEIQTVIGERDIKIDDIQKLKVMENFIYESMRYQPVVDLVMRKALEDDVIDGYPVKKGTNIILNIGRMHRLEFFPKPNEFTLENFAKNVPYRYFQPFGFGPRGCAGKYIAMVMMKAILVTLLRRFHVKTLQGQCVESIQKIHDLSLHPDETKNMLEMIFTPRNSDRCLEH
B2: rArom E181A (enzyme, human)
chain: MAKKTSSKGRNYEGTSSIPGPGYCMGIGPLISHGRFLWMGIGSACNYYNRVYGEFMRVWISGEETLIISKSSSMFHIMKHNHYSSRFGSKLGLQCIGMHEKGIIFNNNPELWKTTRPFFMKALSGPGLVRMVTVCAESLKTHLDRLEEVTNASGYVDVLTLLRRVMLDTSNTLFLRIPLDESAIVVKIQGYFDAWQALLIKPDIFFKISWLYKKYEKSVKDLKDAIEVLIAEKRRRISTEEKLEECMDFATELILAEKRGDLTRENVNQCILEMLIAAPDTMSVSLFFMLFLIAKHPNVEEAIIKEIQTVIGERDIKIDDIQKLKVMENFIYESMRYQPVVDLVMRKALEDDVIDGYPVKKGTNIILNIGRMHRLEFFPKPNEFTLENFAKNVPYRYFQPFGFGPRGCAGKYIAMVMMKAILVTLLRRFHVKTLQGQCVESIQKIHDLSLHPDETKNMLEMIFTPRNSDRCLEH
B3: rArom E181K (enzyme, human)
chain: MAKKTSSKGRNYEGTSSIPGPGYCMGIGPLISHGRFLWMGIGSACNYYNRVYGEFMRVWISGEETLIISKSSSMFHIMKHNHYSSRFGSKLGLQCIGMHEKGIIFNNNPELWKTTRPFFMKALSGPGLVRMVTVCAESLKTHLDRLEEVTNKSGYVDVLTLLRRVMLDTSNTLFLRIPLDESAIVVKIQGYFDAWQALLIKPDIFFKISWLYKKYEKSVKDLKDAIEVLIAEKRRRISTEEKLEECMDFATELILAEKRGDLTRENVNQCILEMLIAAPDTMSVSLFFMLFLIAKHPNVEEAIIKEIQTVIGERDIKIDDIQKLKVMENFIYESMRYQPVVDLVMRKALEDDVIDGYPVKKGTNIILNIGRMHRLEFFPKPNEFTLENFAKNVPYRYFQPFGFGPRGCAGKYIAMVMMKAILVTLLRRFHVKTLQGQCVESIQKIHDLSLHPDETKNMLEMIFTPRNSDRCLEH

Molecular target: the molecule itself
Assay: native gel or EMSA

Protein	stoichiometry N
B1	5
B2	2
B3	2
